Two variants from IntAct's records for PubMed 10220404 can be followed below.

B1: Protein enabled (Drosophila melanogaster (Fruit fly)), Q8T4F7 (parent)
chain: MAMKKLYAKTSFTSKKPSSAANSTPILAYHQQQHQQPGNGICEFQVVAPGHSGELMIRRSQSMHHKMSPPVGGLGSKSEYYSIEELQELDLLDYRHPMYHHYQQQELRQRYHEHEQLVLQLPKATSPKAGPIYEAPQRSQQQQDQMLYVPTAAQRDSSSSAAATSIASSSTLTSSPSPSSSSSLIFSTLRKCVSPSNPSVNPNQPSKTQPSKLGCSMSFSIRTTTATAATAAAANAATATLSTQQQQQQAQQQHKQHLYSNIHHYLIRQQQQKQHYTLQRRHNSVKDKFIGGITTIFAEQSIIGARASVMVYDDNQKKWVPSGSSSGLSKVQIYHHQQNNTFRVVGRKLQDHEVVINCSILKGLKYNQATATFHQWRDSKFVYGLNFSSQNDAENFARAMMHALEVLSGRVANNPGGPPTNGNGYEEDMGYRTMTSEDAAILRQNNSIGGHVTPSAQTPTSQTNQNNIPQSPPTPQGHHRTSSAPPAPQPQQQQQQQQAQQMGQPGSHYGPTGNGPTSNGLPQQVNSQIPPAPQQQPQQQQFQQQQQQQQYQQMVQAGYAPSQQYQQPHYVLSNSNPNLTVHQYPTQQAQQQPPQAPQPPLQNGGMYMVGHGHLPSSASANSVVYASQQQMLPQAHPQAPQAPTMPGPGYGGPPVPPPQQQAENPYGQVPMPPPMNPSQQQQPGQVPLNRMSSQGGPGGPPAPAPPPPPPSFGGAAGGGPPPPAPPQMFNGAPPPPAMGGGPPPAPPAPPAMGGGPPPAPGGPGAPPPPPPPPGLGGAPKKEDPQADLMGSLASQLQQIKLKKNKVTTSAPENSGSSTSSGGSGNYGTIGRSSNGMASMMDEMAKTLARRRAQAEKKDPDPEAEVKKRPWEKSNTLPHKLSGGAGSGSAGSGHEGANGNSGGAGSNTTNSGGESPRPMRKRFGSASEETILKVNGDGLSLALSNGDLDTLKAEIVREMRLEIQKVKNEIIDAIKSEFNRR

The variants in assay [1] derive from B1. The settings on record: with abl_drome Abl.
Variants of B1 are the subject of assay [2]. The settings on record: with src_mouse Src.

Regarding P763A;P770A;P771A;P772A, the “effect of a mutation on the interaction” value in assay [1] and in assay [2] was “decreasing interaction” throughout.

As for P701A;P707A;P708A;P709A, the “effect of a mutation on the interaction” value in assay [1] and in assay [2] was “decreasing interaction” in each case.
